{"source": "the supplement of paper PMC10567573", "parents": {"B1": {"name": "ZNF449 (parent)", "chain": "FQEYDTDCEVFRQRFRQFQYREAA"}}, "data": [{"variants_of": "B1", "test": "protein stability index of a GFP-peptide fusion (GPS, HEK-293T) (PSI 1-6); higher = more stable", "details": "c terminus: a fixed tail appended", "values": [{"variant": "FQEYDTDCEVFRQRFRQFQYRETA", "note": "[A23T]", "protein stability index": 2.47}, {"variant": "FQEYDTDCEVFRQRFRQFQYREHA", "note": "[A23H]", "protein stability index": 2.54}, {"variant": "FQEYDTDCEVFRQRFRQFQYREFA", "note": "[A23F]", "protein stability index": 2.15}, {"variant": "FQEYDTDCEVFRQRFRQFQYREDA", "note": "[A23D]", "protein stability index": 2.73}, {"variant": "FQEYDTDCEVFRQRFRQFQYRECA", "note": "[A23C]", "protein stability index": 2.65}, {"variant": "FQEYDTDCEVFRQRFRQFQYRELA", "note": "[A23L]", "protein stability index": 2.51}, {"variant": "FQEYDTDCEVFRQRFRQFQYREKA", "note": "[A23K]", "protein stability index": 3.31}, {"variant": "FQEYDTDCEVFRQRFRQFQYREYA", "note": "[A23Y]", "protein stability index": 1.95}, {"variant": "FQEYDTDCEVFRQRFRQFQYREVA", "note": "[A23V]", "protein stability index": 2.15}, {"variant": "FQEYDTDCEVFRQRFRQFQYREIA", "note": "[A23I]", "protein stability index": 1.7}, {"variant": "FQEYDTDCEVFRQRFRQFQYREWA", "note": "[A23W]", "protein stability index": 1.61}, {"variant": "FQEYDTDCEVFRQRFRQFQYRENA", "note": "[A23N]", "protein stability index": 2.7}, {"variant": "FQEYDTDCEVFRQRFRQFQYREQA", "note": "[A23Q]", "protein stability index": 2.89}, {"variant": "FQEYDTDCEVFRQRFRQFQYREEA", "note": "[A23E]", "protein stability index": 3.28}, {"variant": "FQEYDTDCEVFRQRFRQFQYRESA", "note": "[A23S]", "protein stability index": 2.11}, {"variant": "FQEYDTDCEVFRQRFRQFQYREMA", "note": "[A23M]", "protein stability index": 2.43}, {"variant": "FQEYDTDCEVFRQRFRQFQYRERA", "note": "[A23R]", "protein stability index": 2.97}, {"variant": "FQEYDTDCEVFRQRFRQFQYREPA", "note": "[A23P]", "protein stability index": 2.39}, {"variant": "FQEYDTDCEVFRQRFMQFQYREAA", "note": "[R16M]", "protein stability index": 3.38}, {"variant": "FQEYDTDCEVFRQRFYQFQYREAA", "note": "[R16Y]", "protein stability index": 2.4}, {"variant": "FQEYDTDCEVFRQRFPQFQYREAA", "note": "[R16P]", "protein stability index": 2.11}, {"variant": "FQEYDTDCEVFRQRFCQFQYREAA", "note": "[R16C]", "protein stability index": 2.07}, {"variant": "FQEYDTDCEVFRQRFTQFQYREAA", "note": "[R16T]", "protein stability index": 2.28}, {"variant": "FQEYDTDCEVFRQRFGQFQYREAA", "note": "[R16G]", "protein stability index": 2.44}, {"variant": "FQEYDTDCEVFRQRFDQFQYREAA", "note": "[R16D]", "protein stability index": 2.6}, {"variant": "FQEYDTDCEVFRQRFWQFQYREAA", "note": "[R16W]", "protein stability index": 2.2}, {"variant": "FQEYDTDCEVFRQRFVQFQYREAA", "note": "[R16V]", "protein stability index": 2.44}, {"variant": "FQEYDTDCEVFRQRFSQFQYREAA", "note": "[R16S]", "protein stability index": 2.21}, {"variant": "FQEYDTDCEVFRQRFAQFQYREAA", "note": "[R16A]", "protein stability index": 2.51}, {"variant": "FQEYDTDCEVFRQRFNQFQYREAA", "note": "[R16N]", "protein stability index": 2.46}, {"variant": "FQEYDTDCEVFRQRFQQFQYREAA", "note": "[R16Q]", "protein stability index": 2.78}, {"variant": "FQEYDTDCEVFRQRFKQFQYREAA", "note": "[R16K]", "protein stability index": 2.98}, {"variant": "FQEYDTDCEVFRQRFIQFQYREAA", "note": "[R16I]", "protein stability index": 2.31}, {"variant": "FQEYDTDCEVFRQRFEQFQYREAA", "note": "[R16E]", "protein stability index": 2.27}, {"variant": "FQEYDTDCEVFRQRFLQFQYREAA", "note": "[R16L]", "protein stability index": 2.59}, {"variant": "FQEYDTDCEVFRQRFFQFQYREAA", "note": "[R16F]", "protein stability index": 2.44}, {"variant": "FQEYDTDCEVFRQRFHQFQYREAA", "note": "[R16H]", "protein stability index": 1.98}, {"variant": "FQEYDTDCEVFRQRFRQFQCREAA", "note": "[Y20C]", "protein stability index": 2.2}, {"variant": "FQEYDTDCEVFRQRFRQFQIREAA", "note": "[Y20I]", "protein stability index": 3.37}, {"variant": "FQEYDTDCEVFRQRFRQFQWREAA", "note": "[Y20W]", "protein stability index": 1.47}, {"variant": "FQEYDTDCEVFRQRFRQFQDREAA", "note": "[Y20D]", "protein stability index": 3.49}, {"variant": "FQEYDTDCEVFRQRFRQFQHREAA", "note": "[Y20H]", "protein stability index": 3.27}, {"variant": "FQEYDTDCEVFRQRFRQFQTREAA", "note": "[Y20T]", "protein stability index": 3.46}, {"variant": "FQEYDTDCEVFRQRFRQFQQREAA", "note": "[Y20Q]", "protein stability index": 3.73}, {"variant": "FQEYDTDCEVFRQRFRQFQNREAA", "note": "[Y20N]", "protein stability index": 3.48}, {"variant": "FQEYDTDCEVFRQRFRQFQPREAA", "note": "[Y20P]", "protein stability index": 2.81}, {"variant": "FQEYDTDCEVFRQRFRQFQEREAA", "note": "[Y20E]", "protein stability index": 3.52}, {"variant": "FQEYDTDCEVFRQRFRQFQRREAA", "note": "[Y20R]", "protein stability index": 2.88}, {"variant": "FQEYDTDCEVFRQRFRQFQMREAA", "note": "[Y20M]", "protein stability index": 3.03}, {"variant": "FQEYDTDCEVFRQRFRQFQLREAA", "note": "[Y20L]", "protein stability index": 2.83}, {"variant": "FQEYDTDCEVFRQRFRQFQGREAA", "note": "[Y20G]", "protein stability index": 3.31}, {"variant": "FQEYDTDCEVFRQRFRQFQVREAA", "note": "[Y20V]", "protein stability index": 3.27}, {"variant": "FQEYDTDCEVFRQRFRQFQAREAA", "note": "[Y20A]", "protein stability index": 3.12}, {"variant": "FQEYDTDCEVFRQRFRQFQFREAA", "note": "[Y20F]", "protein stability index": 2.57}, {"variant": "FQEYDTDCEVFRQRFRQFQSREAA", "note": "[Y20S]", "protein stability index": 3.15}, {"variant": "FQEYDTDCEVFRQRFRQFQKREAA", "note": "[Y20K]", "protein stability index": 3.21}, {"variant": "FQEYDTDCEVFRQYFRQFQYREAA", "note": "[R14Y]", "protein stability index": 2.35}, {"variant": "FQEYDTDCEVFRQTFRQFQYREAA", "note": "[R14T]", "protein stability index": 2.75}, {"variant": "FQEYDTDCEVFRQVFRQFQYREAA", "note": "[R14V]", "protein stability index": 1.65}, {"variant": "FQEYDTDCEVFRQSFRQFQYREAA", "note": "[R14S]", "protein stability index": 2.29}, {"variant": "FQEYDTDCEVFRQWFRQFQYREAA", "note": "[R14W]", "protein stability index": 2.36}, {"variant": "FQEYDTDCEVFRQRFRQTQYREAA", "note": "[F18T]", "protein stability index": 3.11}, {"variant": "FQEYDTDCEVFRQRFRQSQYREAA", "note": "[F18S]", "protein stability index": 2.1}, {"variant": "FQEYDTDCEVFRQRFRQGQYREAA", "note": "[F18G]", "protein stability index": 2.4}, {"variant": "FQEYDTDCEVFRQRFRQDQYREAA", "note": "[F18D]", "protein stability index": 1.79}, {"variant": "FQEYDTDCEVFRQRFRQNQYREAA", "note": "[F18N]", "protein stability index": 2.38}, {"variant": "FQEYDTDCEVFRQRFRQLQYREAA", "note": "[F18L]", "protein stability index": 4.05}, {"variant": "FQEYDTDCEVFRQRFRQMQYREAA", "note": "[F18M]", "protein stability index": 3.07}, {"variant": "FQEYDTDCEVFRQRFRQEQYREAA", "note": "[F18E]", "protein stability index": 2.95}, {"variant": "FQEYDTDCEVFRQRFRQQQYREAA", "note": "[F18Q]", "protein stability index": 3.56}, {"variant": "FQEYDTDCEVFRQRFRQIQYREAA", "note": "[F18I]", "protein stability index": 2.86}, {"variant": "FQEYDTDCEVFRQRFRQYQYREAA", "note": "[F18Y]", "protein stability index": 2.59}, {"variant": "FQEYDTDCEVFRQRFRQKQYREAA", "note": "[F18K]", "protein stability index": 1.76}, {"variant": "FQEYDTDCEVFRQRFRQAQYREAA", "note": "[F18A]", "protein stability index": 3.02}, {"variant": "FQEYDTDCEVFRQRFRQPQYREAA", "note": "[F18P]", "protein stability index": 2.43}, {"variant": "FQEYDTDCEVFRQRFRQWQYREAA", "note": "[F18W]", "protein stability index": 3.11}, {"variant": "FQEYDTDCEVFRQRFRQRQYREAA", "note": "[F18R]", "protein stability index": 2.43}, {"variant": "FQEYDTDCEVFRQRFRQCQYREAA", "note": "[F18C]", "protein stability index": 1.96}, {"variant": "FQEYDTDCEVFRQRFRQHQYREAA", "note": "[F18H]", "protein stability index": 2.4}, {"variant": "FQEYDTDCEVFRQRFRQFPYREAA", "note": "[Q19P]", "protein stability index": 2.16}, {"variant": "FQEYDTDCEVFRQRFRQFIYREAA", "note": "[Q19I]", "protein stability index": 2.53}, {"variant": "FQEYDTDCEVFRQRFRQFMYREAA", "note": "[Q19M]", "protein stability index": 2}, {"variant": "FQEYDTDCEVFRQRFRQFAYREAA", "note": "[Q19A]", "protein stability index": 2.81}, {"variant": "FQEYDTDCEVFRQRFRQFHYREAA", "note": "[Q19H]", "protein stability index": 2.6}, {"variant": "FQEYDTDCEVFRQRFRQFTYREAA", "note": "[Q19T]", "protein stability index": 2.3}, {"variant": "FQEYDTDCEVFRQRFRQFKYREAA", "note": "[Q19K]", "protein stability index": 2.44}, {"variant": "FQEYDTDCEVFRQRFRQFSYREAA", "note": "[Q19S]", "protein stability index": 2.11}, {"variant": "FQEYDTDCEVFRQRFRQFCYREAA", "note": "[Q19C]", "protein stability index": 2.02}, {"variant": "FQEYDTDCEVFRQRFRQFWYREAA", "note": "[Q19W]", "protein stability index": 2.35}, {"variant": "FQEYDTDCEVFRQRFRQFDYREAA", "note": "[Q19D]", "protein stability index": 2.18}, {"variant": "FQEYDTDCEVFRQRFRQFGYREAA", "note": "[Q19G]", "protein stability index": 2.67}, {"variant": "FQEYDTDCEVFRQRFRQFFYREAA", "note": "[Q19F]", "protein stability index": 1.87}, {"variant": "FQEYDTDCEVFRQRFRQFEYREAA", "note": "[Q19E]", "protein stability index": 2.35}, {"variant": "FQEYDTDCEVFRQRFRQFRYREAA", "note": "[Q19R]", "protein stability index": 2.65}]}]}
